Here are results for 5 molecules from article PMC10942449 (bioRxiv, 2024).

In assay [1] the target is DS-Cav1 (respiratory syncytial virus subtype A, strain A2 | not stated) (UniProt P03420). Put plainly: SEC. For orientation: SEC sorts molecules by how far they enter the pores of the column.
Assay [2] has as its target DS-Cav1-His6 (respiratory syncytial virus subtype A, strain A2 | not stated) (UniProt P03420). Put plainly: SEC.
Assay [3] has the same target. Put plainly: cross-linking.
For assay [4], the target named is sc9–10 DS-Cav1 (respiratory syncytial virus subtype A, strain A2 | not stated) (UniProt P03420). Put plainly: SEC.
For assay [5], the target named is sc9–10 DS-Cav1-His6 (respiratory syncytial virus subtype A, strain A2 | not stated) (UniProt P03420). Put plainly: SEC.
For assay [6] the target is unchanged. Put plainly: cross-linking.
In the next assay the target is UFCM1 (human metapneumovirus, …, UniProt Q1A2Z0, E80D | T127C | N153C | A185P). Put plainly: ELISA. Background: In an ELISA, binding on a coated surface is turned into a signal by an enzyme label.
Another assay has as its target UFCM1-P2 (human metapneumovirus, …, UniProt Q1A2Z0, E80D | T127C | N153C | A185P | V155P). Put plainly: ELISA.

In turn, “DS-Cav1 (from UniProt P03420 26-513) (domain or fragment)” showed a stoichiometry N in assay [1] of 3. With “DS-Cav1-His6 (from UniProt P03420 26-513) (domain or fragment)”, the stoichiometry N in assay [2] and in assay [3] was 3 in each case. Regarding “sc9–10 DS-Cav1 (from UniProt P03420 26-513) (domain or fragment)”, the stoichiometry N in assay [4] came out at 3. “sc9–10 DS-Cav1-His6 (from UniProt P03420 26-513) (domain or fragment)”: the stoichiometry N in assay [5] and in assay [6] was 3 throughout.

B1: MPE8 IgG (antibody, V domains shown)
VH: EVQLVESGGGLVKPGGSLRLSCAASGFTFSSYSMNWVRQAPGKGLEWVSSISASSSYSDYADSAKGRFTISRDNAKTSLFLQMNSLRAEDTAIYFCARARATGYSSITPYFDIWGQGTLVTVSS
VL: QSVVTQTPSVSGAPGQRVTISCTGSSSNIGAGYDVHWYQQLPGTAPKLLIYDNNNRPSGVPDRFSASKSGTSASLAITGLQAEDEADYYCQSYDRNLSGVFGTGTKVTVL
Take B1: the binding result in the assay with UFCM1 and with UFCM1-P2 was “binds” throughout.

Usually stoichiometry N stands for a count of units in the complex or per binding partner.
